The text below walks through data of patent US20210138083A1 (INATHERYS, published 2021).

Assay [1] has as its target T1, human transferrin receptor (Transferrin receptor protein 1 isoform 1, Homo sapiens, NCBI NP_003225.2) (Homo sapiens, UniProt P02786 1-760). Description: cell-based or functional assay.
For assay [2], the target named is T1, human transferrin receptor (Transferrin …). Nature of the assay: flow cytometry, biotinylated antibody on THP-1 and MEC-1 cells, streptavidin Alexa F488. As to the method:
Serial dilutions (5 to 0.05 ug/mL) of both biotinylated antibodies (antibody A24 and antibody of ADC INA01-SDV1) were performed and incubated on THP-1 and MEC-1 cell lines. The binding of the diluted antibodies was detected by Flow cytometry using streptavidin Alexa F488 (available at ThermoFisher scientific).
In general terms: In flow cytometry, cells or beads pass a laser one at a time.

T1 sequence (P02786 whole entry, canonical isoform): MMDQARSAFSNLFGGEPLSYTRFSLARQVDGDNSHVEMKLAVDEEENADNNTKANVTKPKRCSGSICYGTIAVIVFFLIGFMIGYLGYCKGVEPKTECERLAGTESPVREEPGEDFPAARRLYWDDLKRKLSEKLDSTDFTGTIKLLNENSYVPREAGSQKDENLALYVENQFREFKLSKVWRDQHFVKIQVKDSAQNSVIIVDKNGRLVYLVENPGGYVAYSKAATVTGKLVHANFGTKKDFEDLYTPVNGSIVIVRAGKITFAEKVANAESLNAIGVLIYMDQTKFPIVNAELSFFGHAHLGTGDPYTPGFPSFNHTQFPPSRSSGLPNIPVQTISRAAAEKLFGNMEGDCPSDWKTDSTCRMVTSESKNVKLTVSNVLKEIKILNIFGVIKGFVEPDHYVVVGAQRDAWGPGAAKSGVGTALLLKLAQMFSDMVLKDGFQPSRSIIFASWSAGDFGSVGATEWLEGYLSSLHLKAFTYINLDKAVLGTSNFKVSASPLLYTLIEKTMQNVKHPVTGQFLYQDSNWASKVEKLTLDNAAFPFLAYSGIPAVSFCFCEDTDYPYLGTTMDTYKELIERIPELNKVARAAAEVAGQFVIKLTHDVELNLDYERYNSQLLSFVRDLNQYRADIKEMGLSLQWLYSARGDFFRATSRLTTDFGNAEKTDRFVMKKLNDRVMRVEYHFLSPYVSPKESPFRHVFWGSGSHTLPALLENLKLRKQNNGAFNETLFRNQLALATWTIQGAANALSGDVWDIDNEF

B1: INA01-SDV1 (antibody, human IgG4 S228P, kappa, V domains shown)
VH: QVQLVQSGPELKKPGASVKVSCKASGYTFTNQGMNWVKQAPGKGLKWMGWINTYTGEPINADDFKGRFVISLDTSASTAYLQISSLKAEDTAVYFCVREGWDSMDYWGQGTSVTVSS
VL: QIVLTQSPATLSVSPGERATLSCSASSSVNYMHWFQQKPGQSPRLLIYSTSNRATGIPARFSGSGSGTSYTLTISSLEPEDFAVYYCQQRSSYPLTFGQGTKLEIKR
modifications: linker APN (formula IV)-valine-citrulline-para-aminobenzyl ester-MMAE attached through the cysteine residues (thiols); biotinylated in Example 1
As for B1, the “IC50 of cell proliferation of HL-60 acute myeloid leukemia cell line” value in assay [1] amounted to 0.08 µg/mL.

B2: A24 (antibody, V domains shown)
VH: QIQLVQSGPELKKPGETVKISCKASGYTFTNQGMNWVKQAPGKGLKWMGWINTYTGEPINADDFKGRFAISLETSASTAYLQINNLKNEDMATYFCVREGWDSMDYWGQGTSVTVSS
VL: QIVLTQSPAIMSASPGEKVTITCSASSSVNYMHWFQQKPGTSPKLWIYSTSNLASGVPARFSGSGSGTSYSLTISRMEAEDAATYYCQQRSSYPLTFGAGTKLELKR
modifications: biotinylated in Example 1
notes: Mouse monoclonal IgG (IgG2kappa) as disclosed in WO 2005/111082; also called antibody A24; murine A24 antibody
Regarding B2, the binding result in assay [2] is on record as “binds”.
